# Experimental data from IntAct's records for PubMed 29039417.
# B1: Protein PTHB1 (Homo sapiens), Q3SYG4 (parent)
# chain: MSLFKARDWWSTILGDKEEFDQGCLCLANVDNSGNGQDKIIVGSFMGYLRIFSPHPAKTGDGAQAEDLLLEVDLRDPVLQVEVGKFVSGTEMLHLAVLHSRKLCVYSVSGTLGNVEHGNQCQMKLMYEHNLQRTACNMTYGSFGGVKGRDLICIQSMDGMLMVFEQESYAFGRFLPGFLLPGPLAYSSRTDSFLTVSSCQQVESYKYQVLAFATDADKRQETEQQKLGSGKRLVVDWTLNIGEQALDICIVSFNQSASSVFVLGERNFFCLKDNGQIRFMKKLDWSPSCFLPYCSVSEGTINTLIGNHNNMLHIYQDVTLKWATQLPHIPVAVRVGCLHDLKGVIVTLSDDGHLQCSYLGTDPSLFQAPNVQSRELNYDELDVEMKELQKIIKDVNKSQGVWPMTEREDDLNVSVVVSPNFDSVSQATDVEVGTDLVPSVTVKVTLQNRVILQKAKLSVYVQPPLELTCDQFTFEFMTPDLTRTVSFSVYLKRSYTPSELEGNAVVSYSRPTDRNPDGIPRVIQCKFRLPLKLICLPGQPSKTASHKITIDTNKSPVSLLSLFPGFASQSDDDQVNVMGFHFLGGARITVLASKTSQRYRIQSEQFEDLWLITNELILRLQEYFEKQGVKDFACSFSGSIPLQEYFELIDHHFELRINGEKLEELLSERAVQFRAIQRRLLARFKDKTPAPLQHLDTLLDGTYKQVIALADAVEENQGNLFQSFTRLKSATHLVILLIALWQKLSADQVAILEAAFLPLQEDTQELGWEETVDAAISHLLKTCLSKSSKEQALNLNSQLNIPKDTSQLKKHITLLCDRLSKGGRLCLSTDAAAPQTMVMPGGCTTIPESDLEERSVEQDSTELFTNHRHLTAETPRPEVSPLQGVSE
# partner: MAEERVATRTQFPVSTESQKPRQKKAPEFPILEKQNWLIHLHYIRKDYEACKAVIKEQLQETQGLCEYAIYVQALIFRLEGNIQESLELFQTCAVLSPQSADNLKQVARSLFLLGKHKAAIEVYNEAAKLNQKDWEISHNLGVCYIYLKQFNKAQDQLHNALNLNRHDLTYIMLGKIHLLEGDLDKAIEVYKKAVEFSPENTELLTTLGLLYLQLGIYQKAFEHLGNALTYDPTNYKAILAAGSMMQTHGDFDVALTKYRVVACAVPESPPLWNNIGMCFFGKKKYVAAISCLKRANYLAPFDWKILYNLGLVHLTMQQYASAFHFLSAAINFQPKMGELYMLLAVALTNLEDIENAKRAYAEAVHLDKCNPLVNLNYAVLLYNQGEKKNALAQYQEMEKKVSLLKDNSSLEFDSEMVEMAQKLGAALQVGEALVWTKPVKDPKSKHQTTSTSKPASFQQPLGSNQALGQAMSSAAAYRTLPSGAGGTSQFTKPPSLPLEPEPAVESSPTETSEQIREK
# Variants of: B1
# Conditions: with bbs4_human BBS4, Q96RK4
row,Variant,effect of a mutation on the interaction
1,S603K,with no effect
2,S603E,with no effect
3,E625A,with no effect
4,M578A,with no effect
5,V575K,with no effect
6,A504K,with no effect
7,L695M,disrupting interaction strength
8,L737K,with no effect
9,A675H,disrupting interaction strength
10,T865K,with no effect
11,V734K,with no effect
12,N866E,with no effect
13,I812K,with no effect
14,R824E,with no effect
15,V413A,with no effect
16,L808E,with no effect
17,L799A,with no effect
18,L618E,with no effect
19,L618K,with no effect
20,S855A,with no effect
21,S855K,with no effect
22,I617K,with no effect
23,S729A,with no effect
24,S541E,with no effect
25,H694A,with no effect
26,V505A,with no effect

row,Variant,effect of a mutation on the interaction
1,R493E,with no effect
2,R493A,with no effect
3,Q677A,with no effect
4,F721K,disrupting interaction strength
5,K594A,with no effect
6,T871K,with no effect
7,L559F,disrupting interaction strength
8,V838K,disrupting interaction strength
9,T813A,with no effect
10,L609E,with no effect
11,D470A,with no effect
12,P479A,with no effect
13,T428K,with no effect
14,A774E,with no effect
15,F472A,with no effect
16,G701E,disrupting interaction strength
17,Q798K,disrupting interaction strength
18,Q791L,disrupting interaction strength
19,V489A,with no effect
20,S787K,with no effect
21,E862K,with no effect
22,G842E,with no effect
23,G585A,with no effect
24,Q524E,with no effect
25,Q524A,with no effect
26,K554E,with no effect

row,Variant,effect of a mutation on the interaction
1,V415K,with no effect
2,A739E,with no effect
3,P530S,disrupting interaction strength
4,P530A,with no effect
5,P530K,with no effect
6,P875A,with no effect
7,H869E,with no effect
8,K821A,with no effect
9,T861K,with no effect
10,L815E,with no effect
11,R679E,with no effect
12,T725E,with no effect
13,H546K,with no effect
14,Q621E,with no effect
15,T771K,with no effect
16,A710E,with no effect
17,D686A,with no effect
18,A427K,with no effect
19,D650E,with no effect
20,I735E,with no effect
21,D773A,with no effect
22,T697E,with no effect
23,T697K,with no effect
24,K532A,with no effect
25,L562A,with no effect
26,V444E,with no effect

row,Variant,effect of a mutation on the interaction
1,T552E,with no effect
2,V522A,with no effect
3,E408K,with no effect
4,D551A,with no effect
5,S820A,with no effect
6,Q858K,with no effect
7,F646K,with no effect
8,D409E,with no effect
9,L752K,with no effect
10,L740K,with no effect
11,L529E,with no effect
12,L529P,disrupting interaction strength
13,L648E,with no effect
14,F632A,with no effect
15,T805E,with no effect
16,N719A,disrupting interaction strength
17,K809A,with no effect
18,F653E,with no effect
19,F653K,with no effect
20,E644K,with no effect
21,K789A,with no effect
22,F636K,with no effect
23,S418E,with no effect
24,K781A,with no effect
25,L882E,with no effect
26,S593K,with no effect

row,Variant,effect of a mutation on the interaction
1,A592E,with no effect
2,N448K,with no effect
3,L793E,with no effect
4,L793A,with no effect
5,T482A,with no effect
6,F421A,with no effect
7,F421K,with no effect
8,L851E,with no effect
9,L411E,with no effect
10,V879A,with no effect
11,P564K,with no effect
12,T434K,with no effect
13,A690E,with no effect
14,E714K,with no effect
15,H732K,with no effect
16,P834K,with no effect
17,L452S,disrupting interaction strength
18,R678A,with no effect
19,R678H,disrupting interaction strength
20,Q569A,with no effect
21,Y623K,with no effect
22,K526E,with no effect
23,Q602A,with no effect
24,L491A,with no effect
25,P689A,with no effect
26,G565R,disrupting interaction strength

row,Variant,effect of a mutation on the interaction
1,R514E,with no effect
2,T836E,with no effect
3,T836K,with no effect
4,G841A,with no effect
5,D747E,with no effect
6,H651E,with no effect
7,T496E,with no effect
8,I640E,with no effect
9,I801A,disrupting interaction strength
10,A746E,with no effect
11,A746K,with no effect
12,H581E,with no effect
13,E607A,with no effect
14,Y460A,with no effect
15,L795A,with no effect
16,L736E,with no effect
17,E499A,with no effect
18,V706A,with no effect
19,E848A,with no effect
20,A670K,with no effect
21,S561E,with no effect
22,L766A,with no effect
23,L766E,with no effect
24,D571E,with no effect
25,H867A,with no effect
26,T484K,with no effect

row,Variant,effect of a mutation on the interaction
1,T845A,with no effect
2,L698E,disrupting interaction strength
3,A682K,with no effect
4,G433E,with no effect
5,S596A,with no effect
6,S596K,with no effect
7,A754K,with no effect
8,A567K,with no effect
9,D804F,disrupting interaction strength
10,D804E,with no effect
11,G518K,with no effect
12,A712E,with no effect
13,P511E,with no effect
14,D513A,with no effect
15,F724K,with no effect
16,V430E,with no effect
17,V432E,with no effect
18,R674K,with no effect
19,T589A,disrupting interaction strength
20,L692K,with no effect
21,V450A,with no effect
22,C816E,with no effect
